Here are results for three molecules from patent US20120178124A1, “STEROL SIDE CHAIN-CLEAVING ENZYME PROTEIN AND USE THEREOF” (MITSUBISHI CHEMICAL CORPORATION, priority 2009, published 2012).

“And” between values parts separate entries of the source, which are not always exact repeats. Equal values may be shown once.

One may read the Km as the substrate concentration at which the rate is half of its maximum.

What all share (format): biochemical
A short description of data set [1]: Kinetics analysis of CYP204A1 and CYPSS. The following applies: for Specific activity: pH 7.5, 15° C., 60 minutes; for Km / Vmax: Lineweaver-Burk plot. As for the experimental part:
Moreover, the activity decrease rate when the substrate concentration is increased from 10 μM to 100 μM can also be obtained by conducting the conversion of 4-cholesten-3-one at a substrate concentration of 0.1 to 500 μM and then examining the relationship between the substrate concentration and the activity of the enzyme protein. Specifically, there is prepared 1 ml of a reaction solution, which comprises […] CYP204A1 or […] CYPSS204A, 96 μg/ml spinach-derived ferredoxin, 0.1 U/ml spinach-derived ferredoxin reductase protein, 3 U/ml glucose dehydrogenase, 60 mM glucose, 2 mM NADH and 2 mM NADPH. Tris-HCl is then added to the reaction mixture to adjust to pH 7.5. 20 μl of 4-cholesten-3-one used as a substrate, dissolved in DMSO to have a final concentration of 0.1, 0.5, 1, 2, 5, 10, 20, 50, 100 or 500 μM, is added to the reaction mixture. The reaction is initiated by addition of NADH and NADPH, and it can be carried out at 200 rpm at 15° C. for 60 minutes.
(§1) To 20 ml of the cell suspension prepared in (2) above, 680 μl of X10 Bug Buster (Novagen), 20 μl of Benzonase (Novagen), and 2 ml of 40 mg/ml lysozyme were added, and the obtained mixture was then shaken at 30° C. for 30 minutes to disintegrate the cells. Thereafter, the reaction solution was centrifuged to obtain the cell-free extract. The obtained, approximately 20 ml of cell-free extract was dialyzed against 1 L of Buffer R (20 mM KPB pH 7.4, 20% glycerol) two times, and the deposited precipitate was then removed by centrifugation. The cell-free extract obtained as a supernatant herein was used in the subsequent experiments.
Using the cell-free extract prepared in (3) above, conversion of 4-cholesten-3-one was carried out at substrate concentration of 0.1 to 500 μM, and the relationship between the substrate concentration and the enzyme protein activity was examined. The reaction solution was prepared, such that 1 ml of the buffer comprised 220 pmol CYP204A1 or 250 pmol CYPSS, 96 μg/ml spinach-derived ferredoxin, 0.1 U/ml spinach-derived ferredoxin reductase protein, 3 U/ml glucose dehydrogenase, 60 mM glucose, 2 mM NADH, and 2 mM NADPH. Tris-HCl was added to the reaction solution so as to adjust it to pH 7.5. 20 μl of 4-cholesten-3-one, which had been dissolved in DMSO to a final concentration of 0.1, 0.5, 1, 2, 5, 10, 20, 50, 100 or 500 μM, was added. The reaction was initiated by addition of NADH and NADPH, and it was carried out at 200 rpm at 15° C. for 60 minutes. Thereafter, 1.5 ml of ethyl acetate was added to the reaction solution to terminate the reaction, and extraction was carried out. Then, extraction was carried out again with 0.75 ml of ethyl acetate. The obtained ethyl acetate phase was solidified using evaporator, and the residue was then dissolved in 200 μl of methanol. Thereafter, progesterone was detected by HPLC analysis. The relationship between the substrate concentration and the enzyme protein activity, and kinetics parameters calculated by production of Lineweaver-Burk plot, is shown in Table 5.

Data set [2] in a line: Kinetics analysis of CYP204A1 and CYPSS. The following applies: 4-cholesten-3-one 100 μg/ml (so in the source).
Data set [3] is described as follows: Thermostability test of cell-free extract. The following applies: for Relative activity: 140 hr versus 0 hr; for Activity 0 hr: enzyme protein solution before conservation, reaction 15° C., 4 hours. The procedure: as §1
The cell-free extract prepared in (3) above was conserved at various temperature for 140 hours. The conservation temperature was set at 6° C., 10° C., 20° C., 30° C., 37° C., or 45° C. Using the enzyme protein solution before conservation and the sample obtained after conservation for 140 hours, conversion of 4-cholesten-3-one was carried out, and stability was examined. The reaction solution was prepared, such that 1 ml of the buffer comprised an enzyme protein solution of CYP204A1 or CYPSS that had been conserved at each temperature, 64 μg/ml spinach-derived ferredoxin, 0.1 U/ml spinach-derived ferredoxin reductase protein, 3 U/ml glucose dehydrogenase, 60 mM glucose, 50 μg/ml 4-cholesten-3-one, 2 mM NADH, and 2 mM NADPH. The reaction was initiated by addition of NADH and NADPH, and it was carried out at 200 rpm at 15° C. for 4 hours. Thereafter, 1.5 ml of ethyl acetate was added to the reaction solution to terminate the reaction, and extraction was carried out. Then, extraction was carried out again with 0.75 ml of ethyl acetate. The obtained ethyl acetate phase was solidified using an evaporator, and the residue was then dissolved in 200 μl of methanol. Thereafter, progesterone was detected by HPLC analysis. […] In particular, when the cell-free extract was conversed at 20° C. for 140 hours, CYP204A1 maintained 47% of its activity and CYPSS maintained 39% of its activity.

Where [4] appears, read: conserved at 6° C. for 140 hours.
The mark [5] stands for this setting: conserved at 10° C. for 140 hours.
The mark [6] stands for this setting: conserved at 20° C. for 140 hours.
[7] abbreviates: conserved at 30° C. for 140 hours.
[8] abbreviates: conserved at 37° C. for 140 hours.
[9] abbreviates: conserved at 45° C. for 140 hours.
Where [10] appears, read: 4-cholesten-3-one concn. 0.1 μM.
[11] abbreviates: 4-cholesten-3-one concn. 0.5 μM.
The mark [12] stands for this setting: 4-cholesten-3-one concn. 10 μM (reference).
Where [13] appears, read: 4-cholesten-3-one concn. 100 μM.
[14] abbreviates: 4-cholesten-3-one concn. 500 μM.

For the molecule `CC(C)CCC[C@@H](C)[C@H]1CC[C@H]2[C@@H]3CCC4=CC(=O)CC[C@]4(C)[C@H]3CC[C@]12C` [4-cholesten-3-one], the substrate inhibition result in data set [1] (4-cholesten-3-one 0.1 to 500 μM) is on record as “causes substrate inhibition”.

B1: CYP204A1: P450scc from Novosphingobium aromaticivorans ATCC 700278, amino acid sequence SEQ ID NO: 23 (protein)
chain: MARAATAAGNGLPLLDGGVPLLGHLAQFFRDPVSVLKRGYRSKGRLFAMNFMGQRMNVMLGPEHNRFFFEETDKLLSIRESMPFFLKMFSPEFYSFAEMDEYLRQRSIIMPRFKAASMKQYVPVMVEESLNLVERLGEEGEFDLIPTLGPVVMDIAAHSFMGREFHEKLGHEFFELFRDFSGGMEFVLPLWLPTPKMVKSQRAKRKLHAILQSWIDKRRAAPLDPPDFFQTMIETKYPDGRPVPDEIIRHLILLLVWAGHETTAGQVSWALADLLQNPDYQKVLRGEISSLLGGSDGRDLGWEQAVAMEKMDLALRETERLHPVAYMLSRKARADIERDGYVIRKGEFVLLAPSVSHRMEETFRNPDAYDPERFNPANPDAQIESNSLIGFGGGVHRCAGVNFARMEMKVLVAILLQNFDMELMDEVRPIAGASTYWPAQPCRVRYRRRKLDGSEAGADMAALARAAGCPAHT
modifications: Novosphingobium aromaticivorans
On to B1, for which the “enzyme protein activity in comparison with that at 10 μM 4-cholesten-3-one” value in data set [2] came to 67%. The “Activity 140 hr” value in data set [3] (setting [4]) worked out at 4.5 µg/mL; in data set [3] (setting [5]), 3.9 µg/mL; in data set [3] (setting [6]), 2.5 µg/mL; in data set [3] (setting [7]) it was 0.5 µg/mL; in data set [3] (setting [8]), 0 µg/mL; in data set [3] (setting [9]), 0 µg/mL. Also, the Relative activity in data set [3] (conserved at 6° C.) is recorded as 85%; in data set [3] (conserved at 10° C.) it was 74%; in data set [3] (conserved at 30° C.), 9%; in data set [3] (conserved at 37° C.), 0%; in data set [3] (conserved at 45° C.), 0%. Further, the “Activity 0 hr” value in data set [3] came out at 5.3 µg/mL. Besides, the Specific activity in data set [1] (setting [10]) came out at 2.2 mmol/min/mol; in data set [1] (setting [11]), 15.3 mmol/min/mol; in data set [1] (4-cholesten-3-one concn. 1 μM), 25.2 mmol/min/mol; in data set [1] (4-cholesten-3-one concn. 2 μM), 32.2 mmol/min/mol; in data set [1] (4-cholesten-3-one concn. 5 μM), 36.1 mmol/min/mol; in data set [1] (4-cholesten-3-one concn. 10 μM), 43.1 mmol/min/mol. The Specific activity in data set [1] (4-cholesten-3-one concn. 20 μM) is recorded as 42.7 mmol/min/mol; in data set [1] (4-cholesten-3-one concn. 50 μM), 33.5 mmol/min/mol; in data set [1] (setting [13]), 28.7 mmol/min/mol; in data set [1] (setting [14]) it was 20.1 mmol/min/mol. The “Specific activity relative to that at 10 μM” value was found to be 100 in data set [1] (setting [12]) and 66.6 in data set [1] (setting [13]). Besides, the Km in data set [1] (4-cholesten-3-one) is 1 µM and ~1 µM. For the same molecule, in data set [1] (4-cholesten-3-one), the Vmax was determined as 47.4 mmol/min/mol.

B2: Sphingomonas subterranea NBRC16086 P450scc CYPSS204A (CYPSS), wild type, SEQ ID NO: 2 (Novosphingobium subterraneum) (protein)
chain: MASAAAGADGLPLLDGGVPLLGHLAQFFRDPVSVLKRGYRSKGRLFAMNFMGQRMNVMLGPEHNRFFFEETDKLLSIRESMPFFLKMFSPEFYSFAEMDEYLRQRAIIMPRFKAASMKQYVPVMVEESLNLVERLGEEGEFDLIPTLGPVVMDIAAHSFMGREFHEKLGHEFFELFRDFSGGMEFVLPLWLPTPKMVKSQRAKKKLHAILQSWIDKRRASPLDPPDFFQTMIETKYPDGRAVPDEIIRHLILLLVWAGHETTAGQVSWALADLLQNPGYQQVLREEVASLLGGSDGRALGWEQAVAMEKMDLALRETERLHPVAYMLSRKASADIERDGYRIRKGEFVLLAPSVSHRMEETFRNADAYDPERFNPQNPDAQIESNSLIGFGGGVHRCAGVNFARMEMKVLVAILLQNFDMELIDEVRPIAGASTYWPAQPCRVRYKRRKLDGAGGSADVAALAKAAGCPAHA
For B2, the “enzyme protein activity in comparison with that at 10 μM 4-cholesten-3-one” value in data set [2] was found to be 90%. Besides, the “Activity 140 hr” value in data set [3] (setting [4]) came out at 11.6 µg/mL; in data set [3] (setting [5]) it was 10.5 µg/mL; in data set [3] (setting [6]), 5.6 µg/mL; in data set [3] (setting [7]) it was 1 µg/mL; in data set [3] (setting [8]), 0 µg/mL; in data set [3] (setting [9]) it was 0 µg/mL. For the same molecule, the Relative activity in data set [3] (conserved at 6° C.) amounted to 81%; in data set [3] (conserved at 10° C.) it was 73%; in data set [3] (conserved at 30° C.) it was 7%; in data set [3] (conserved at 37° C.), 0%; in data set [3] (conserved at 45° C.), 0%. The “Activity 0 hr” value in data set [3] turned out to be 14.4 µg/mL. Further, the “Vmax value compared with that of CYP204A1” value in data set [1] (4-cholesten-3-one) was “approximately 1.7 times”. Further, the Specific activity in data set [1] (setting [10]) came to 1.9 mmol/min/mol; in data set [1] (setting [11]), 20.0 mmol/min/mol; in data set [1] (4-cholesten-3-one concn. 1 μM), 36.5 mmol/min/mol; in data set [1] (4-cholesten-3-one concn. 2 μM) it was 49.5 mmol/min/mol; in data set [1] (4-cholesten-3-one concn. 5 μM), 70.4 mmol/min/mol; in data set [1] (4-cholesten-3-one concn. 10 μM), 67.2 mmol/min/mol. Further, the Specific activity in data set [1] (4-cholesten-3-one concn. 20 μM) is listed as 72.4 mmol/min/mol; in data set [1] (4-cholesten-3-one concn. 50 μM), 71.2 mmol/min/mol; in data set [1] (setting [13]), 60.5 mmol/min/mol; in data set [1] (setting [14]), 33.6 mmol/min/mol. In addition, the entries for the “Specific activity relative to that at 10 μM” value in data set [1] (setting [12]) and in data set [1] (setting [13]) were 100 and 90.0, respectively. The Michaelis-Menten constant (Km) in data set [1] (4-cholesten-3-one) is 1.1 µM and ~1 µM. In addition, in data set [1] (4-cholesten-3-one), the Vmax came to 78.7 mmol/min/mol.
